For one molecule, IC50, potency against Kv1.3 channels (patch clamp) and Selectivity (for Kv1.3 over Kv1.1, ratio of IC50s) results are on record in US20170362286A1.

No end group written: not given here.

In this experiment the target is mKv1.3 (murine voltage-gated potassium channel Kv1.3) (mouse) (UniProt P16390). Briefly: cell-based or functional assay.
Chain of mKv1.3 (murine voltage-gated potassium channel Kv1.3) (mouse) (P16390 whole entry): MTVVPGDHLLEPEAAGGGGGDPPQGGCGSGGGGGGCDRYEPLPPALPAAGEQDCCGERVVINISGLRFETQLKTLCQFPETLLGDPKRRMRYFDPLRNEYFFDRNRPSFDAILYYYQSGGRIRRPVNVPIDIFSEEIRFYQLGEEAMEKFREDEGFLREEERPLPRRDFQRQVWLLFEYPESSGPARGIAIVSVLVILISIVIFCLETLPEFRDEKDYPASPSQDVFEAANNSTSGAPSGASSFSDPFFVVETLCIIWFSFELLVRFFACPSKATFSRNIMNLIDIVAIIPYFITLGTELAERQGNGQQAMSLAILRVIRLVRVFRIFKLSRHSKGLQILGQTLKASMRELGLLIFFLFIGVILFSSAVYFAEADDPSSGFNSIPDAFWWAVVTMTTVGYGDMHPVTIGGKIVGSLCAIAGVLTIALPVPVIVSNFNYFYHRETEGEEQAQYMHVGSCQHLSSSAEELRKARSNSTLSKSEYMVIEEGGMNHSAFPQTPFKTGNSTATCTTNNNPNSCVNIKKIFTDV

On to EWSSRSCIDTIPKSRCTAFQCKHSMKYRLSFCRKTCGTC (not fully specified; ends and bridges not checked) [[EWSS]ShK], for which the IC50, potency against Kv1.3 channels (patch clamp) amounted to 0.033 nM and the Selectivity (for Kv1.3 over Kv1.1, ratio of IC50s) is 158 fold.
